According to patent publication US20050053918A1, “Method of identifying peptides capable of binding to MHC molecules, peptides identified thereby and their uses” (priority 2001, published 2005):

Tested on: EL4-HHD cells loaded with the synthetic peptides
Test: Cytotoxic T lymphocytes assay after immunization of HHD transgenic mice
Format: in vivo
Settings: compared to negative control peptide ALLCAPSLL; effector-to-target ratio 50:1 shown
Description: Cells were loaded separately with individual peptides, washed and injected in four groups: 1-p1028 (SEQ ID NO:13) alone, 2-p1258 (SEQ ID NO:24) alone, 3—pool of peptides: p913 (SEQ ID NO:5), p958 (SEQ ID NO:9), p989 of CD59 (SEQ ID NO:11) and p989 of FLI (SEQ ID NO:12), 4—peptides p1031 (SEQ ID NO:14), p1121 (SEQ ID NO:22) and p1068 (SEQ ID NO:16). Unloaded EL4-HHD or targets cells not loaded with the peptides were used as negative controls. An effector-to-target ratio of 50:1 is shown.
Transgenic mice expressing a single chain HLA-A2.1/Db-β2m which are double knockout for H-2 Db and for β2m (HHD mice) were immunized four times intra-peritoneally at 7-day interval with 2×10^6 irradiated (5,000 rad) RMA-S-HHD-B7.1 cells loaded for two hours at 26° C. followed by two hours at 37° C. with 100 μM of the synthetic peptides. Ten days after the last immunization the spleens were removed from the vaccinated mice. Splenocytes were re-stimulated with 100 μM of synthetic peptides for five days. Viable lymphocytes were separated by lympholyte-M (Cadarlane, Homby, Canada) and resuspended in RPMI-HEPES. Cytotoxic activity was measured as in [26] by admixing the lymphocytes at different ratios with 5×10^3 EL4-HHD cells grown in medium containing ^35S methionine and then loaded with the synthetic peptides.
To further evaluate the affinity of the peptides to the HLA-A2 and to obtain some insight into their immunogenic potential, selected peptides were tested for their ability to induce an immune response in HLA-A2 transgenic mice. It was assumed that only peptides that could be effectively presented and remain tightly bound to the cells would be capable of inducing an immune response in these mice. The same synthetic peptides that were used for the FACS analysis were used for immunization of the HHD transgenic mice, which express the human HLA-A2.1/Db-β2m single chain. To immunize the mice, the HHD culture cells were loaded with the different peptides and then injected to the HHD mice. The immune response in the mice was followed by the appearance of CTLs specific for these peptides. Some of the peptides were indeed capable of inducing an immune response, which both authenticate them as MHC bound peptides and gives an indication about their immunogenic potential.

Molecule	lysis of EL4-HHD cells loaded with the peptides by CTLs of immunized HHD mice
ALSDHHIYL [from aldolase A]	significant lysis
FLFDGSPTYVL [from fatty acid synthase]	significant lysis
TLWVDPYEV [from BTG2]	significant lysis
GLIEKNIEL [from DNA (cytosine-5-)-methyltransferase]	significant lysis

Target: soluble HLA-A2 (Homo sapiens, UniProt P04439, D140Y/D185E/D98H/E176V/E277Q/G131W/G231S/I119V/I121R/I166T/I218V/N151K/N90K/P208A/P217A/Q86G/Q94H/R138H/R169H)
Test: Appearance of peptides recovered from soluble HLA-A2 of cancer cell lines (ESI-MS/MS)
Settings: MCF-7, MDA-231, PC3, UCI-107
Description: Cell lines were co-transfected with plasmid HLA-A2/Q10^b and with phβ2m, which conferred resistance to the antibiotic G418 or transfected only with the plasmids sHLA-A2, sHLA-B7 and sHLA-Cw4 that contained the antibiotic resistance. Cells were electroporated by use of a Gene Pulser (Bio-Rad) set at […] 960 μF. Transfected cell clones were selected in G418 antibiotic and screened for those secreting sMHC to the growth medium. […] Color was developed with ABTS (Sigma) catalyzed by streptavidin peroxidase (Sigma).
Cultured cells, expressing the soluble MHC were grown to confluency in 150 mm plates. The culture medium was collected and residual cells were removed by centrifugation. […] The antibodies were coupled to NHS-activated agarose (Pharmacia) or to protein A Sepharose (Sigma) with n-methylpipelimidate (Sigma). The columns were washed with 0.5 M NaCl, 20 mM, Tris pH 8. The MHC molecules were eluted from the column with 0.1 M acetic acid at pH 3. Peptides were separated from the MHC complexes by boiling for five minutes in 10% acetic acid followed by ultra-filtration through a 3 kDa Microcon (Amincon).
The MHC bound peptides were resolved by reverse-phase HPLC on a 0.1 ID fused silica capillaries with length of about 30 cm (J&W) slurry packed with POROS 10 R2 (PerSepetive Biosystems). The capillaries were fitted with electrospray needle made from 36-gauge stainless tubing (Small Parts Inc. Miami Lakes, Fla.). A Rheodyne 9125 HPLC injector fitted with a 20 μl loop was used for loading the column. The peptides were resolved by a relatively long (90 minutes) linear gradient of 5 to 50% acetonitrile with 0.1% acetic acid, at a flow rate of about 1 μl/minute. The flow was electrosprayed directly from the HPLC column into an ion trap mass spectrometer (LCQ, Finnigan). The mass spectrometry analysis was done in the positive ion mode, using repetitively a full MS scan usually between 450 to 1500 atomic mass units (amu) followed by collision-induced decomposition (CID) of the dominant ion selected from the previous MS scan. In some cases the full MS was performed with a narrower mass range to reduce the number of detected peptides. The peptides were identified by comparing their MS and CID data to the calculated MS and CID of the proteins in the Genpept databank (www.ncbi.nlm.nih.gov/genpept) using the Sequest software (obtained from Finnigan, San Jose, Calif.). The number of times each peptide was fragmented by CID was usually limited to two by dynamic exclusion, a feature of the Xcalibur control software the LCQ mass spectrometer (Finnigan).

Molecule	appearance of peptide in soluble HLA-A2 from cell lines of different tissue origin
GVYDGEEHSV [from MAGE XP-2 protein (MAGE-B2)]	detected only in the ovarian cancer cells (UCI-107)
ALFGALFLA	recovered only from PC3 cells
SLIGHLQTL [from protein tyrosine posphatase]	detected only in the breast cancer cell MDA-231
SLLGGDVVSV [from TSC-22 related protein]	detected at high level in the two-breast cancer cells (MCF-7 and MDA-231), but was not observed in the ovarian (UCI-107) and the prostate (PC3) cancer cells
NLTISDVSV [from MUC1]	recovered only from MCF-7 grown without estrogen

Tested on: T1, HLA-A2.1
T1 construct: expressed in transfected cells; host or cells: RMA-S-HHD (murine TAP-2 deficient lymphoma, C57BL/6 origin)
Test: Stabilization of cell surface HLA-A2.1 by peptide binding on RMA-S-HHD cells (FACS)
Format: cell-based, human
Settings: 100 μM peptide, 2 h 26° C. + 2 h 37° C., FACS with W6/32 mAb
Description: Synthetic peptides were added to […] RMA-S-HHD cells to a concentration of […] followed by incubation for two hours at 26° C. and two hours at 37° C. […] The HLA-A2.1 peptide derived from gp100 served as a positive control and unloaded RMA-S-HHD cells as a negative control.
RMA-S-HHD cells were washed three times with PBS followed by incubation overnight in FCS-free IMDM medium at 26° C. Synthetic peptides were added to 10^6 cells at a concentration of 100 μM. The cells were incubated for two hours at 26° C. followed by two hours at 37° C. […] (Sigma).
Another approach to ascertain that the identified peptides were indeed MHC bound peptide antigens, their capacity to bind tightly and stabilize cell surface HLA-A2.1 was tested by reconstitution into empty MHC on the surface of RMA-S-HHD cells.

Molecule	binding affinity to MHC by reconstitution and stabilization of empty MHC on the surface of RMA-S-HHD cells
GVYDGEEHSV [from MAGE XP-2 protein (MAGE-B2)]	normal

Target: T2, sHLA-A2 (human)
T2 construct: also called sA2; sMHC-A2
Test: sMHC eluate MS, UCI-101
Settings: not given

Molecule	binding result
SLWGQPAEA (also called p958)	binds
ILDKKVEKV	binds
LLLDVPTAAV (also called p1011)	binds
GLIEKNIEL (also called p1028)	binds
LLLDVPTAAVQA (also called p1210; p11210)	binds
GLYPGLIWL (also called p1031)	binds
SLLPPTALVGL (also called p1080)	binds

Other lines, results leading:

binding result	Molecule
binds	GLLGTLVQL (also called p913)
binds	FLFDGSPTYVL (also called p1258)
binds	SLSEKTVLL (also called p989 of CD59)
binds	ALSDHHIYL (also called p1068)
binds	SLFPGKLEV (also called p989 of FLI)
binds	YLLPAIVHI
binds	SLLPPDALVGL (also called p1094)
binds	LLDVPTAAV (also called p898)
